Residue numbers refer to the chain shown, from its start. Numbers in names are those of the source. Blank lines part the entries; values can stand above or below the binder they belong to.
How the values were obtained:
[1] = target: T1, human Sortilin (SORT1), full-length untagged, expressed on cells (human, UniProt Q99523 78-831); assay: cell-based or functional assay
T1 sequence: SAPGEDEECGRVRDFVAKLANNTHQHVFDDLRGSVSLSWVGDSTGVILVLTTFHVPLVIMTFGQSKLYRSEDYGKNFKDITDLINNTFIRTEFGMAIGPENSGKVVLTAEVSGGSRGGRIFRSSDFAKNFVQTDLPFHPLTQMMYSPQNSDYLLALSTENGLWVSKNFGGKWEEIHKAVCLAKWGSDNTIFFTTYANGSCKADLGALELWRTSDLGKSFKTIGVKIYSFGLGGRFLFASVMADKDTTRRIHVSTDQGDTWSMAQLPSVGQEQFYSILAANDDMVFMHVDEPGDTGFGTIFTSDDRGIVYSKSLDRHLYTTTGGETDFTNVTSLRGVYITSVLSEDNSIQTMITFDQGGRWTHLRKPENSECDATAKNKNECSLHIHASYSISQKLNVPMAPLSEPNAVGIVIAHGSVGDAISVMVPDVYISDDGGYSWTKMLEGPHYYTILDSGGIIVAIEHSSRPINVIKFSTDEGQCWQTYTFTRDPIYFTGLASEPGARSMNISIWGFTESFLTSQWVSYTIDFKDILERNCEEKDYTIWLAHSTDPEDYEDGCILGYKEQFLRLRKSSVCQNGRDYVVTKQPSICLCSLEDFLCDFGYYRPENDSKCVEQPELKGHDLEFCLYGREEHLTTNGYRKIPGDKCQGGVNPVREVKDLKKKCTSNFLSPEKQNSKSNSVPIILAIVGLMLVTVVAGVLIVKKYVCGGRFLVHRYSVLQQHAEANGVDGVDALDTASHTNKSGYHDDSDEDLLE

[2] = target: T1, human Sortilin (SORT1), full-length …; assay: cell-based or functional assay; remark: listed apart in the source
[3] = target: T1, human Sortilin (SORT1), full-length …; assay: FACS on HEK293T cells expressing human SORT1, huIgG1; average of two experiments
Procedure: (§1) For the binding assay, stable HEK293T cells expressing human SORT1 were harvested by trypsinization, washed in PBS, counted and plated on 96-well u-bottom plates at 1×10⁵ cells/well. The plates were spun at 1,400 rpm for 3 minutes and primary anti-SORT1 or control antibodies were added in FACS buffer (PBS+2 FBS) and incubated on ice for one hour. Cells were subsequently centrifuged as before and washed thrice with FACS buffer. Cells were then incubated with anti-human APC conjugated secondary antibody (BD Biosciences) in FACS buffer for 30 minutes on ice. Cells were again washed three times with FACS buffer and analyzed on a BD FACS Canto or an Intellicyt Flow Cytometer. Binding was measured as median fluorescent intensity (MFI) in the […] channel of the GFP positive cell population.
All antibodies were tested on the huIgG1 backbone.

[4] = target: T1, human Sortilin (SORT1), full-length …; assay: cell-based or functional assay; remark: listed apart in the source
[5] = target: T1, human Sortilin (SORT1), full-length …; assay: FACS on HEK293T cells expressing human SORT1
Procedure: as §1

[6] = target: T2, histidine-tagged human SORT1 (R&D Systems) (human, UniProt Q99523 78-755); assay: BLI, complete kinetic analysis with multiple concentrations of SORT1
T2 construct: Bought recombinant protein; also called His-tagged human SORT1; not shown: histidine tag
T2 sequence: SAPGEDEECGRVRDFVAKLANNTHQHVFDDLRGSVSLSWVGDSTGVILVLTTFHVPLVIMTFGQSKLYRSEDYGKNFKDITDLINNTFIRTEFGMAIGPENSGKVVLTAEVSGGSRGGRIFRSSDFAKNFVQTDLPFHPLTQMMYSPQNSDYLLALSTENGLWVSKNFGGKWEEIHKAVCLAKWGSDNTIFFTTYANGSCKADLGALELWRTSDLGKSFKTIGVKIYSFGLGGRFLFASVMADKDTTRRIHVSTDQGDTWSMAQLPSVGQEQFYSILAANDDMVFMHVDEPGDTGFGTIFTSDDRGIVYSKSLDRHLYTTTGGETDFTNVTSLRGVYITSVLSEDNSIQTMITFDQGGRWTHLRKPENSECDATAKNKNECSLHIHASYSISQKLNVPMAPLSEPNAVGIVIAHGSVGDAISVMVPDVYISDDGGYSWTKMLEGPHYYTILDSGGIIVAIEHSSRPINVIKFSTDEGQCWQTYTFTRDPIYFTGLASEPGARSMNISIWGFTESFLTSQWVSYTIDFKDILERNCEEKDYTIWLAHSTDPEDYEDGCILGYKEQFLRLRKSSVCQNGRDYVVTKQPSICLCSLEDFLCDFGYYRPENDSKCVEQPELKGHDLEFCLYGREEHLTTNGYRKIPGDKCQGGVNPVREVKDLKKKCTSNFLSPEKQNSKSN

[7] = target: T2, histidine-tagged human SORT1 (R&D …); assay: BLI (Octet RED96), antibody captured on anti-human IgG Fc sensor, 20 nM His-tagged human SORT1, 1:1 fit
Procedure: The G1m3 or G1m(f) allotype with L234A/L235A/P331S (“LALAPS” motif) mutations was used as a background (Jefferis R and Lefranc M-P, Mabs, 2009 July-August; 1(4): 332-338). […] Bio-layer interferometry (BLI) data was collected at a rate of 5 Hz at 25° C. on a Pall ForteBio Octet RED96 instrument. Data analysis was performed using ForteBio Data Analysis Software, version 9.0. Standard kinetic buffer (PBS, 0.1 BSA, 0.02 Tween-20, pH 7.2) was used for the assay and for preparing reagents. For all assays, sensor tips were equilibrated in buffer prior to analysis.
Twenty nM histidine-tagged human SORT1 (R&D Systems, Minneapolis, Minn.) was then bound to the captured anti-SORT1 surface (200 s association time, 1200 s dissociation time). […] Full, local fitting using a 1:1 interaction model was applied to extract association and dissociation rate constants (kₐ and kd, respectively) for each N33 mutant. Affinity constants (KD) were calculated from the ratio […]. Different amino acid substitutions were made at N33 and tested for binding to SORT1 in an off-rate screen (under non-stress conditions) as shown in Table 9.

[8] = target: T1, human Sortilin (SORT1), full-length …; assay: cell-based or functional assay; remark: listed apart in the source

DR EC50 (M): down-regulation of cell surface SORT1, U251 cells, FACS [1]: 2.69e-10 M
DR at 0.6 nM antibody (IgG): percent SORT1 downregulation, U251 cells [1]: 43%
DR at 1.25 nM antibody (IgG): percent SORT1 downregulation, U251 cells [2]: 61.5%
Kd [3]: 0.856 nM
B1: S-60-3 (antibody, IgG1, V domains shown)
VH: QVQLQESGPGLVKPSETLSLTCAVSGYSISSGYYWGWIRQPPGKGLEWIGTIYHSGSTYYNPSLKSRVTISVDTSKNQFSLKLSSVTAADTAVYYCARQGSIKQGYYGMDVWGQGTTVTVSS
VL: DIVMTQSPLSLPVTPGEPASISCRSSQSLLRSNGYNYLDWYLQKPGQPPQLLIYLGSNRVSGVPDRFSGSGSGTDFTLKISRVEAEDVGVYYCMQQQETPLTFGGGTKVEIK
notes: Tested on the huIgG1 (WT) backbone

% DR at 150 nM antibody (IgG), U251 cells [4]: 69.3%
EC50 (pM): downregulation (DR) of cell surface SORT1, U251 cells, FACS [4]: 72.6 pM
Kd [5]: 0.365 nM
Kd [6]: 0.298 nM
B2: S-60-15.1 [N33T] as huIgG1 (antibody, V domains shown)
VH: B1 VH
VL: B1 VL with N33T, P48S, V60A, V83A, T99A
notes: huIgG1 without the LALAPS mutations

% DR at 150 nM antibody (IgG), U251 cells [4]: 3.4%
Kd [7]: 1 nM
B3: S-60-15.5 [N33D] (antibody, V domains shown)
VH: B1 VH
VL: DIVMTQSPLSLPVTPGEPASISCRSSQSLLRSDGYNYLDWYLQKPGQSPQLLIYLGSNRASGVPDRFSGSGSGTDFTLKISRAEAEDVGVYYCMQQQEAPLTFGGGTKVEIKR
notes: also called completely deamidated version of S-60-15

More lines, now with the values behind:

B4: S-60-15.1 [N33T] LALAPS (antibody, human IgG1, kappa, L234A L235A, V domains shown)
VH: B1 VH
VL: B3 VL with D33T
notes: huIgG1 LALAPS
% DR at 150 nM antibody (IgG), U251 cells [4]: 70.3%
EC50 (pM): downregulation (DR) of cell surface SORT1, U251 cells, FACS [4]: 104 pM
Kd [6]: 0.26 nM

B5: S-60-24 (antibody, IgG1, V domains shown)
VH: B1 VH
VL: B1 VL with P18S, S28G, P48S, V60A, T99A
notes: as for B1
DR at 1.25 nM antibody (IgG): percent SORT1 downregulation, U251 cells [2]: 65.2%
DR at 0.63 nM antibody (IgG): percent SORT1 downregulation, U251 cells [8]: 81.5%
Kd [3]: 0.755 nM

— patent publication US20200024348A1 (Alector, published 2020)
